The values below come from paper PMC9897460.

The target in assay [1] is 5FAM-PGC1α_144 coactivator peptide. Kind of assay: fluorescence polarisation. (In general: Fluorescence polarisation rises when a labelled molecule tumbles more slowly, as on binding a larger partner.)
Another assay deals with 5FAM-NRIP1_1068 peptide. Description: fluorescence polarisation.

A word on the Kd: it is the concentration at which binding is half-saturated. A low value points to a tighter complex. Regarding “PPARγ ligand binding domain (LBD), delipidated (domain or fragment)”, the Kd in assay [1] worked out at 2010 nM; with 5FAM-NRIP1_1068 peptide it was 8.24 µM.
